Test results: US20230203119A1 (IGM BIOSCIENCES, published 2023)
Changes are numbered by the printed parent chain. In names and notes the source's numbering stands.

T1: IL-15 receptor (β and γ subunits) on human CD8 T cells and NK cells (human, UniProt P14784 27-551; P31785 23-369)
T1 sequence (looked up) 1: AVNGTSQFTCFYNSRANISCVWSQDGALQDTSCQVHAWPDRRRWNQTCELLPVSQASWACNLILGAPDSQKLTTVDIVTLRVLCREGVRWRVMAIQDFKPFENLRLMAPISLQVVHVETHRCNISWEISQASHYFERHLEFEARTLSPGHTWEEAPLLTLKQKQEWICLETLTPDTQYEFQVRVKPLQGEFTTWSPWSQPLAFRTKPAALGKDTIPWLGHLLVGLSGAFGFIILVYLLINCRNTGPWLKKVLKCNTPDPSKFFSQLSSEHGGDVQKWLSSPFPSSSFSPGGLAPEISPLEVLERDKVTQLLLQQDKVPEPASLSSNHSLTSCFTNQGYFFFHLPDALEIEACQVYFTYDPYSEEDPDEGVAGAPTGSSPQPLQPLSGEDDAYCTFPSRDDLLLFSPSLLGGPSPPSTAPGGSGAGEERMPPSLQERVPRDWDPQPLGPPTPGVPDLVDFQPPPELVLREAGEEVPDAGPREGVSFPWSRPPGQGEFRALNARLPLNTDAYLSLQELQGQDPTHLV
T1 sequence (looked up) 2: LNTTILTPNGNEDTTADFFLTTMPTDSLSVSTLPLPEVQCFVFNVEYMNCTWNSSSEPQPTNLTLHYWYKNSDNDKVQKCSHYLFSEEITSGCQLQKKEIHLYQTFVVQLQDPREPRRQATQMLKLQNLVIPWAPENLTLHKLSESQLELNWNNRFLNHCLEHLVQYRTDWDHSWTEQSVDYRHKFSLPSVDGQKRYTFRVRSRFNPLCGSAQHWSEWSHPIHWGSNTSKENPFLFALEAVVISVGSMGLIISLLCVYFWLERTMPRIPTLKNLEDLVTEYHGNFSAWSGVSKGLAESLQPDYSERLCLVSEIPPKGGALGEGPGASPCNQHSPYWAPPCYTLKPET

T2: IL-15 receptor (β and γ subunits) on cynomolgus CD8 T cells (cynomolgus, UniProt Q38J85 27-551; A0A2K5VGJ6 23-369)
T2 sequence (looked up) 1: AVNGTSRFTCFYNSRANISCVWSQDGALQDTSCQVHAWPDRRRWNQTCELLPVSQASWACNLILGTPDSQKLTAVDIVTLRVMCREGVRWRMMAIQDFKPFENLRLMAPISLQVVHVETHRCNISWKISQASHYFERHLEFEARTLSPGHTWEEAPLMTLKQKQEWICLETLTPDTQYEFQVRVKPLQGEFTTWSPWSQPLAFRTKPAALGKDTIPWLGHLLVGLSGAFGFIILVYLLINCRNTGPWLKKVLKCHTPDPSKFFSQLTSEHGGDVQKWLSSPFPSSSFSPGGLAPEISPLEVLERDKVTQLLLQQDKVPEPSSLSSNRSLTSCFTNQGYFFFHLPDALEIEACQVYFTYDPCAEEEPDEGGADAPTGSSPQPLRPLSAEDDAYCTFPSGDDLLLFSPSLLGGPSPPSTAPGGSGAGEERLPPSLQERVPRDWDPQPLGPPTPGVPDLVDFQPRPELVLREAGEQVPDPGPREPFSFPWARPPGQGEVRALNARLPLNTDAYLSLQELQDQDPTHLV
T2 sequence (looked up) 2: T1 sequence (looked up) 2 with T14A, A16T, T22S, H141R, T228S, A326P

B1: h3C5 IgM + J*RI (anti-PD-L1 IgM pentamer with modified J-chain J*RI) (antibody)
VH: QVQLQESGPGLVKPSETLSLTCTVSGFSLTSYDISWIRQPPGKGLEWIGVIWTGVGTNYNPSLKSRVTISVDTSKNQFSLKLSSVTAADTAVYYCARDPYYYGMDYWGQGTLVTVSS
VL: DIQMTQSPSSLSASVGDRVTITCRASQDISIWLSWYQQKPGKAPKLLIYKASNLHTGVPSRFSGSGSGTDFTLTISSLQPEDFATYYCLQSQSFPRTFGQGTKLEIK
chain: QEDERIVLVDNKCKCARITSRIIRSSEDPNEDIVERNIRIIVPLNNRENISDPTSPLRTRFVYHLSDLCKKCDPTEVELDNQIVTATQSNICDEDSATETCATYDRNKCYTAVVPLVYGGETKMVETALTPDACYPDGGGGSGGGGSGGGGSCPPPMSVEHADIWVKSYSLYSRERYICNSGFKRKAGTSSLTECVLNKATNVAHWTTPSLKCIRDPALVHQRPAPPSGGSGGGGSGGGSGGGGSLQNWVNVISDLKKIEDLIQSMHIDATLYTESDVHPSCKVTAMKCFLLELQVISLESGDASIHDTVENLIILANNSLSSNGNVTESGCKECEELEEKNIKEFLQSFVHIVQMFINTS
notes: IgM pentamer; Third chain is the modified J-chain J*RI (J* Y102A - IL-15Ralpha sushi - IL-15); also called H1-3C5 + J*RI; h3C5 + J*RI
B2: m3c5-J*RI (anti-PD-L1 human IgM pentamer with m3c5 VH/VL and modified J-chain J*RI) (antibody)
VH: QVQLKESGPGLVAPSQSLSITCTVSGFSLTSYDISWVRQPPGKGLEWLGVIWTGVGTNYNSAFMSRLSISKDNSKSQVFLKMNSLQTDDTAMYYCVRDPYYYGMDYWGQGTSVTVSS
VL: B1 VL with T5N, V15L, R18T, V19I, K42N, A43I, K45E, S60P, F83I, Q100G
chain: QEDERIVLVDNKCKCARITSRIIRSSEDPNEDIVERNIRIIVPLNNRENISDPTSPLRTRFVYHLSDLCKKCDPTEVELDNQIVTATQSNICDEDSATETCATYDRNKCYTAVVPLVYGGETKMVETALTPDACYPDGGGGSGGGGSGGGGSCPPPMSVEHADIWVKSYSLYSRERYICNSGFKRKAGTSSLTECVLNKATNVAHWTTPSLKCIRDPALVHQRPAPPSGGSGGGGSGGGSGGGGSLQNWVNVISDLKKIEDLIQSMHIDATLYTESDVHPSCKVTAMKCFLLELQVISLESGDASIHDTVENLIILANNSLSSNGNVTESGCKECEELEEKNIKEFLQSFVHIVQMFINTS
B3: h3C5 IgM + J* (anti-PD-L1 IgM pentamer with J-chain variant Y102A, no IL-15) (antibody)
VH: B1 VH
VL: B1 VL
chain: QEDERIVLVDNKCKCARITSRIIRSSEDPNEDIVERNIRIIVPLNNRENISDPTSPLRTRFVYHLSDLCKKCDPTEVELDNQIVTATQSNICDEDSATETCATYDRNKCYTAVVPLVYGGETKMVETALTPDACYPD
B4: 3C5 H2L2 F(ab')2 (antibody, V domains shown)
VH: B1 VH with I48L, V71K
VL: B1 VL with V19I
notes: Tested as F(ab')2; also called 3C5 Fab
B5: h3C5 IgM + SJ*RI (anti-PD-L1 IgM pentamer with modified J-chain SP34 scFv-J*-R-I) (bispecific antibody)
VH: B1 VH
VL: B1 VL
chain: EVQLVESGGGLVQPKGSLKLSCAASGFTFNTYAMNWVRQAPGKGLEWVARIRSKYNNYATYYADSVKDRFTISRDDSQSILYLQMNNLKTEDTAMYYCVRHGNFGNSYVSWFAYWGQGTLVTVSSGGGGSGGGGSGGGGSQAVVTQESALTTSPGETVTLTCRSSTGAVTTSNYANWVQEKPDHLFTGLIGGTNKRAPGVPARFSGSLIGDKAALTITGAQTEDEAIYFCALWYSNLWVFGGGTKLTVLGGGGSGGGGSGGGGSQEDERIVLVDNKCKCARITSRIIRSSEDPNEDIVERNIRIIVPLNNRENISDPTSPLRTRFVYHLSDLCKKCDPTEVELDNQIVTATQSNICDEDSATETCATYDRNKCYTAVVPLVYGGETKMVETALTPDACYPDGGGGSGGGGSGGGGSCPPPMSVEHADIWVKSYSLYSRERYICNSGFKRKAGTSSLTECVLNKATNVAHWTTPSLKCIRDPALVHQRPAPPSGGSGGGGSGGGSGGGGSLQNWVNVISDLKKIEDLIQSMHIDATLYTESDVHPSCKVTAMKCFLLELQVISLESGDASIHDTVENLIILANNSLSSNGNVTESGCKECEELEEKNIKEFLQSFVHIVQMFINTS
B6: h3C5 IgM + JH (anti-PD-L1 IgM pentamer with J-chain fused to human serum albumin) (antibody)
VH: B1 VH
VL: B1 VL
chain: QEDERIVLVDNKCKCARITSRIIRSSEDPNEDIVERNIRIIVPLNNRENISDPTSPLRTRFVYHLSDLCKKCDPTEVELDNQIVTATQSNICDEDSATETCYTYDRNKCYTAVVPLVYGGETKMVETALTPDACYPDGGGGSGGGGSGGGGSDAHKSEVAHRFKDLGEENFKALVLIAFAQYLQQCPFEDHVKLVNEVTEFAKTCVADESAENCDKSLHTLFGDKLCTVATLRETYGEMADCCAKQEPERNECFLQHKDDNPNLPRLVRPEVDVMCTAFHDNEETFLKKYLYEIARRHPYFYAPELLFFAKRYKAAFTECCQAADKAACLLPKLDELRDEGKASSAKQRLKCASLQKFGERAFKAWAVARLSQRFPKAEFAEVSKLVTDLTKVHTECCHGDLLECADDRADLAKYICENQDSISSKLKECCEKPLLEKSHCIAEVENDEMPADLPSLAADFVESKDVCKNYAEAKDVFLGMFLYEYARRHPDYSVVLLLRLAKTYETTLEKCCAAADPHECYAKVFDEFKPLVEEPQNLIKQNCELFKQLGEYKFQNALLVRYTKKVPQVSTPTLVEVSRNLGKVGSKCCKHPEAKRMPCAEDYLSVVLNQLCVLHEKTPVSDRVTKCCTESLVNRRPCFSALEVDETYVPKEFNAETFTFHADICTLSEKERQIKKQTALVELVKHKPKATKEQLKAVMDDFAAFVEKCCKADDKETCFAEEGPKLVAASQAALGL
notes: IgM pentamer; Third chain is the modified J-chain J15HSA (no IL-15); also called H1-3C5 + JH; hu3C5+JH
B7: 3C5 IgM + J*RI-N4D/N65D (IL-15 double mutant N4D/N65D) (antibody)
VH: B1 VH
VL: B1 VL
chain: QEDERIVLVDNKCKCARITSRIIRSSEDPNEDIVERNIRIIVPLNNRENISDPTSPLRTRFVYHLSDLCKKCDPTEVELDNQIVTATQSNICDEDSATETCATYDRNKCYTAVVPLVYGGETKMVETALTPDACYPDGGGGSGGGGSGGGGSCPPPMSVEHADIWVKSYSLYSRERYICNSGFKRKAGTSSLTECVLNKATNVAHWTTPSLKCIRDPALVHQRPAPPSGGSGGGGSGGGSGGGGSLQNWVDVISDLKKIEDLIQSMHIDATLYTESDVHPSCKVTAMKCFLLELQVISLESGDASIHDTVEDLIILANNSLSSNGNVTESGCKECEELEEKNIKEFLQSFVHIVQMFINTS
B8: KD-RI (anti-PD-L1 IgG with human IL-15Ralpha sushi domain and human IL-15 fused to its C-terminus) (antibody)
heavy: not shown
light: QSALTQPASVSGSPGQSITISCTGTSSDVGAYNYVSWYQQHPGKAPKLMIYDVSNRPSGVSNRFSGSKSGNTASLTISGLQAEDEADYYCSSYTSSSTRVFGTGTKVTVLGQPKANPTVTLFPPSSEELQANKATLVCLISDFYPGAVTVAWKADGSPVKAGVETTKPSKQSNNKYAASSYLSLTPEQWKSHRSYSCQVTHEGSTVEKTVAPTEC
notes: Heavy chain fusion protein and light chain as described in U.S. Pat. No. 10,407,502
B9: 153 IgM + J*RI (anti-CD20 IgM antibody 153 with modified J-chain J*RI) (antibody)
VH: EVQLVQSGAEVKKPGESLKISCKGSGYSFTSYWIGWVRQMPGKGLEWMGIIYPGDSDTRYSPSFQGQVTISADKSITTAYLQWSSLKASDTAMYYCARHPSYGSGSPNFDYWGQGTLVTVSS
VL: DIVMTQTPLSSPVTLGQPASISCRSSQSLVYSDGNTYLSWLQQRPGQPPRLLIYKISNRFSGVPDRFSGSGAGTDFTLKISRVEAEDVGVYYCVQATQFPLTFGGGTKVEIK
chain: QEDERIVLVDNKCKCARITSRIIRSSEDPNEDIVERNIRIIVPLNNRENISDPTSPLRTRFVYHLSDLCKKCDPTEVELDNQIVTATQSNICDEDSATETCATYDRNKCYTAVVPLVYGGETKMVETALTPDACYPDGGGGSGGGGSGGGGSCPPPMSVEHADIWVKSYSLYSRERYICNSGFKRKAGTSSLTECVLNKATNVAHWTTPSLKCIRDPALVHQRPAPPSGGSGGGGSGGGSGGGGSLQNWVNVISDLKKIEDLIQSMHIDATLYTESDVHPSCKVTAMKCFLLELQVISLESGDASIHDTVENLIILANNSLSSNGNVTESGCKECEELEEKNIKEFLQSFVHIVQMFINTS

Columns and labels:
[1] = target: T1, IL-15 receptor (β and γ subunits) on …; test: cell-based or functional assay
PD-L1 = target: T3, PD-L1 (UniProt Q9NZQ7 19-238, limits assumed); test: ELISA on PD-L1
T3 construct: ELISA antigen; also called programmed cell death ligand-1 protein

[2] = target: T1, IL-15 receptor (β and γ subunits) on …; test: cell-based or functional assay; remark: listed apart in the source
[3] = target: T1, IL-15 receptor (β and γ subunits) on …; test: cell-based or functional assay; remark: listed apart in the source
[4] = target: T1, IL-15 receptor (β and γ subunits) on …; test: cell-based or functional assay; remark: listed apart in the source
[5] = target: T2, IL-15 receptor (β and γ subunits) on …; test: cell-based or functional assay
[6] = target: T4, human PD-L1 expressed on HEK-293T cells (human, UniProt Q9NZQ7 19-290); test: high-throughput flow cytometry on HEK-293T cells expressing human PD-L1 and its alanine mutants
T4 construct: whole, on cells
Description: The epitope that the 3C5 H2L2 (VH: SEQ ID NO: 91, VL: SEQ ID NO: 94) antibody binds to on human PD-L1 was mapped using Alanine-scanning mutagenesis. Epitope mapping was performed by constructing an Alanine scan library of human PD-L1 which was then expressed on HEK-293T cells. Binding of the 3C5 H2L2 F(ab′)2 to each HEK-293 transfected PD-L1 mutant version was evaluated by high-throughput flow cytometry.

[7] = target: T1, IL-15 receptor (β and γ subunits) on …; test: cell-based or functional assay; remark: listed apart in the source

T3 sequence (Q9NZQ7 19-238 limits assumed): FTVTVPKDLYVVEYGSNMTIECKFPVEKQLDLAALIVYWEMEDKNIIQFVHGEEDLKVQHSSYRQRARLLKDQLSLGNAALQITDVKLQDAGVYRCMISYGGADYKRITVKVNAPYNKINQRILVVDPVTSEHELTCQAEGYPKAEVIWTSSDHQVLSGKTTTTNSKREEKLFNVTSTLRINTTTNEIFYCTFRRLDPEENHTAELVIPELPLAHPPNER
T4 sequence (Q9NZQ7 19-290): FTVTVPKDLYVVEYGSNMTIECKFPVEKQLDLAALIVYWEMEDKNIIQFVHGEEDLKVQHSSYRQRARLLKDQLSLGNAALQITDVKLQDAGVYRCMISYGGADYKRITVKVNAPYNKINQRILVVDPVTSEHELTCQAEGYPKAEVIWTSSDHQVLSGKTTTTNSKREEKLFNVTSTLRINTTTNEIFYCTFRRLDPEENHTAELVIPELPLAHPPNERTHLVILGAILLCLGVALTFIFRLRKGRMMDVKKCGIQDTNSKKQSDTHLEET

Binder | CD8+ T cell proliferation (Ki-67) EC50 [1] | Kd (PD-L1) | NK cell proliferation (Ki-67) EC50, Donor 230 [2] | NK cell proliferation (Ki-67) EC50, Donor 403 [2] | CD8+ T cell proliferation (Ki-67) EC50, Donor 230 [3] | CD8+ T cell proliferation (Ki-67) EC50, Donor 403 [3] | also measured
B1 | 0.1 nM | 0.04 nM | 0.027 nM | 0.027 nM | 0.31 nM | 0.51 nM | 
B2 |  |  |  |  |  |  | human CD8+ T cell proliferation (Ki-67), average EC50 [4]: 3.22 nM; cynomolgus CD8+ T cell proliferation (Ki-67), average EC50 [5]: 6.85 nM
B3 |  |  | > 80 nM | > 80 nM | > 80 nM | > 80 nM | 
B4 |  |  |  |  |  |  | binding result [6]: binds
B5 |  |  | 0.63 nM | 0.71 nM | 0.03 nM | 0.34 nM | 
B6 | > 100 nM | 0.05 nM |  |  |  |  | 
B7 |  |  |  |  |  |  | CD8+ T cell proliferation (Ki-67), potency against the constructs with WT IL-15 [7]: 50 fold reduced potency; NK cell proliferation (Ki-67), potency against the constructs with WT IL-15 [7]: 100 fold reduced potency
B8 | 0.51 nM | 1.33 nM |  |  |  |  | 
B9 | 0.64 nM |  |  |  |  |  | 
